According to patent US20110306105A1 (University of California, published 2011):

T1: trifunctional scaffoldin Scaf-ctf displayed on the yeast (S. cerevisiae EBY100) cell surface (chimeric: C. cellulolyticum, C. …, Displayed on the S. cerevisiae EBY100 cell surface through an N-terminal anchor fusion, which the letters do not carry.)
T1 construct: also called Sacf-ctf; SCAF6; not shown: N-terminal yeast display anchor and linker of vector pCTCON2 (called the GPI anchor); C-terminal c-Myc tag; the vector junctions; possibly a His stretch carried over from pETscaf6, since reverse primer R1SalI anneals on His codons
T1 chain: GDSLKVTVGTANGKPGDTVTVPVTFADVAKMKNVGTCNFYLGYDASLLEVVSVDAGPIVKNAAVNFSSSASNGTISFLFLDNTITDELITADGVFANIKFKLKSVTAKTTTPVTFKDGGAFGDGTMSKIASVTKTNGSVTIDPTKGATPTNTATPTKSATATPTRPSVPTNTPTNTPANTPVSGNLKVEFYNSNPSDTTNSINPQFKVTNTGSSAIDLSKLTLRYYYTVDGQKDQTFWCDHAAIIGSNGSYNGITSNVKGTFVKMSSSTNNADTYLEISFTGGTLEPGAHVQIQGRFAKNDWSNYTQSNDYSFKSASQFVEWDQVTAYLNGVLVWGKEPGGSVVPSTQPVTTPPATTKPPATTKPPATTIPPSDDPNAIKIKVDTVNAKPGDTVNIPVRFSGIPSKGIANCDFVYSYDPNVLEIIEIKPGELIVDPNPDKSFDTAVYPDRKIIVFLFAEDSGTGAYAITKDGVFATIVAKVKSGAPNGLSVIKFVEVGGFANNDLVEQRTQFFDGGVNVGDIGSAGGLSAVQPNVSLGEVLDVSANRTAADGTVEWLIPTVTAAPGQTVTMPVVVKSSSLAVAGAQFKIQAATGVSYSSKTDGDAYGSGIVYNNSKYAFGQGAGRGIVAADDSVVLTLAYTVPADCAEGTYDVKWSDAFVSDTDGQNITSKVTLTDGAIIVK

T2: scaffoldin Scaf-c displayed on the yeast cell surface (chimeric: C. cellulolyticum cohesin …)
T2 construct: also called Sacf-c; not shown: yeast surface display anchor of vector pCTCON2; C-terminal c-Myc tag
T2 chain: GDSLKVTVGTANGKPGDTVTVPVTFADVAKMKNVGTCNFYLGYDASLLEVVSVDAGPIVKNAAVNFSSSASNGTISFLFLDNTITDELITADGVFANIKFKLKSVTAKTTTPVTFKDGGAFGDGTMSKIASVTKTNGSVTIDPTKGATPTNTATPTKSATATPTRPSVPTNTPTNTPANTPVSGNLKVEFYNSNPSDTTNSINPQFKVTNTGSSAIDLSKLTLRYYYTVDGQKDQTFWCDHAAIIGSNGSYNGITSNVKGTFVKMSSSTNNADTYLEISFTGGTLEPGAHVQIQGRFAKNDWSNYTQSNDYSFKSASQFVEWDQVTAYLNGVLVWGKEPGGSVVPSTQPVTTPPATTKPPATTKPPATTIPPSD

T3: scaffoldin Scaf-ct displayed on the yeast cell surface (chimeric: C. cellulolyticum, C. …)
T3 construct: also called Sacf-ct; not shown: yeast surface display anchor of vector pCTCON2; C-terminal c-Myc tag
T3 chain: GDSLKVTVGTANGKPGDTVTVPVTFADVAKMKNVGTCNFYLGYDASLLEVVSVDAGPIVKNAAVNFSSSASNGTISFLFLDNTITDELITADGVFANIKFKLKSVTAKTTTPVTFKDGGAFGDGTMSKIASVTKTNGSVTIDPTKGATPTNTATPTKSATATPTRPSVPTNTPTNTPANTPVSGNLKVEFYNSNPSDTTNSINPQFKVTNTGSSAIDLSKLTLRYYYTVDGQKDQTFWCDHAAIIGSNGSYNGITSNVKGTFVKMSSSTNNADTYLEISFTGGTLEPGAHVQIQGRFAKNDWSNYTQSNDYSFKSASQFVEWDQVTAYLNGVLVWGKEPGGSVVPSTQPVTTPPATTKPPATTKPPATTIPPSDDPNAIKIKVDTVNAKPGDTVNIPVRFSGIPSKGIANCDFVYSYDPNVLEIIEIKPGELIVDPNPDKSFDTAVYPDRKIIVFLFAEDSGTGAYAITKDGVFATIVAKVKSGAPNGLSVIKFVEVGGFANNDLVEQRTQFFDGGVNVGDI

B1: exoglucanase CelE from C. cellulolyticum fused to a dockerin domain from the same species (Ec), His6-tagged (enzyme)
chain: MLVGAGDLIRNHTFDNRVGLPWHVVESYPAKASFEITSDGKYKITAQKIGEAGKGERWDIQFRHRGLALQQGHTYTVKFTVTASRACKIYPKIGDQGDPYDEYWNMNQQWNFLELQANTPKTVTQTFTQTKGDKKNVEFAFHLAPDKTTSEAQNPASFQPITYTFDEIYIQDPQFAGYTEDPPEPTNVVRLNQVGFYPNADKIATVATSSTTPINWQLVNSTGAAVLTGKSTVKGADRASGDNVHIIDFSSYTTPGTDYKIVTDVSVTKAGDNESMKFNIGDDLFTQMKYDSMKYFYHNRSAIPIQMPYCDQSQWARPAGHTTDILAPDPTKDYKANYTLDVTGGWYDAGDHGKYVVNGGIATWTVMNAYERALHMGGDTSVAPFKDGSLAIPEAEVYPDILDEARYQLINMKTLLNSQVPAGKYAGMAHHKAHDERWTALAVRPDQDTMKRWLQPPSTAATLNLAAIAAQSSRLWKQFDSAFATKCLTAAETARDAAVAHPEIYATMEQGAGGGAYGDNYVLDDFYWAACELYATTGSDKYLNYIKSSKHYLEMPTELTGGENTGITGAFDWGCTAGMGTITLALVPTKLPAADVATAKANIQAAADKFISISKAQGYGVPLEEKVISSPFDASVVKGFQWGSNSFVINEAIVMSYAYEFSDVNGTKNNKYINGALTAMDYLLGRNPNIQSYITGYGDNPLENPHHRFWAYQADNTFPKPPPGCLSGGPNSGLQDPWVKGSGWQPGERPAEKCFMDNIESWSTNEITINWNAPLVWISAYLDEKGPEIGGSVTPPTNLGDVNGDGNKDALDFAALKKALLSQDTSTINVANADINKDGSIDAVDFALLKSFLLGKITQHHHHHH
notes: Expressed in E. coli and used as cell lysate or purified; also called CelE-Dc
B2: endoglucanase CelG from C. cellulolyticum fused to a dockerin domain from R. flavefaciens (Gf), His6-tagged (enzyme)
chain: MGTYNYGEALQKSIMFYEFQRSGDLPADKRDNWRDDSGMKDGSDVGVDLTGGWYDAGDHVKFNLPMSYTSAMLAWSLYEDKDAYDKSGQTKYIMDGIKWANDYFIKCNPTPGVYYYQVGDGGKDHSWWGPAEVMQMERPSFKVDASKPGSAVCASTAASLASAAVVFKSSDPTYAEKCISHAKNLFDMADKAKSDAGYTAASGYYSSSSFYDDLSWAAVWLYLATNDSTYLDKAESYVPNWGKEQQTDIIAYKWGQCWDDVHYGAELLLAKLTNKQLYKDSIEMNLDFWTTGVNGTRVSYTPKGLAWLFQWGSLRHATTQAFLAGVYAEWEGCTPSKVSVYKDFLKSQIDYALGSTGRSFVVGYGVNPPQHPHHRTAHGSWTDQMTSPTYHRHTIYGALVGGPDNADGYTDEINNYVNNEIACDYNAGFTGALAKMYKHSGGDPIPNFKAIEKITNDEVIIKAGLNSTGPNYTEIKAVVYNQTGWPARVTDKISFKYFMDLSEIVAAGIDPLSLVTSSNYSEGKNTKVSGVLPWDVSNNVYYVNVDLTGENIYPGGQSACRREVQFRIAAPQGRRYWNPKNDFSYDGLPTTSTVNTVTNIPVYDNGVKVFGNEPAGGSEPGTKLVPTWGDTNCDGVVNVADVVVLNRFLNDPTYSNITDQGKVNADVVDPQDKSGAAVDPAGVKLTVADSEAILKAIVELITLPQHHHHHH
notes: Expressed in E. coli; also called CelG-Df

Experiments:
[1] = target: T1, trifunctional scaffoldin Scaf-ctf …; test: immunofluorescence microscopy, yeast displaying Scaf-ctf incubated with E. coli lysate
Method: After incubation for 2 h, cells were pelleted, washed twice with PBS, and resuspended in PBS to an OD at 600 nm of 1. For fluorescence microscopy (Olympus BX51), 5- to 10_l volumes of cell suspensions were spotted onto slides and a coverslip was added. […] Whole-cell fluorescence was measured with a fluorescence microplate reader (Synergy4; BioTek, VT) at an excitation wavelength of 485 nm and an emission wavelength of 535 nm.
A His6 tag was added to the C terminus of each of the dockerin domains for detection of the assembly.

[2] = target: T2, scaffoldin Scaf-c displayed on the …; test: immunofluorescence microscopy with anti-His6 on yeast displaying Scaf-c incubated with E. coli lysate
[3] = target: T3, scaffoldin Scaf-ct displayed on the …; test: immunofluorescence microscopy with anti-His6 on yeast displaying Scaf-ct incubated with E. coli lysate

Row | Binder | binding result [1] | binding result [2] | binding result [3]
1 | B1 | binds |  | 
2 | B2 |  | no binding | no binding
